Reference: patent US20030064921A1, “Methods and compounds for modulating melanocortin receptor ligand binding and activity” (The Regents of the University of California, priority 1999, published 2003)
Where no end group is shown, it is not given here.

Experiments:
MC4R [1] = biological target: T1, MC4R (Homo sapiens, UniProt P32245); assay: cAMP assay, suppression of α-MSH stimulated cAMP production; type: cell-based
Excerpt: (§1) Preferred assays measure, directly, or indirectly, melanocortin receptor induced changes in intracellular cAMP concentrations. One such assay measures the ability of cAMP to displace (8-^3H) cAMP from a high affinity cAMP binding protein (see Gilman (1979) Proc. Natl. Acad. Sci., USA, 67: 305-312). Briefly, test cells are exposed to the ligands to be screened. Following treatment, the cells are washed twice with phosphate buffered saline and intracellular cAMP extracted by lysing the cells with 1 mL of 60% ethanol. The assay is then run as described by Gilman, supra.).
(§2) The mini-AGRP binding was tested by examining its ability to displace NDP-MSH, a well established high affinity MCR agonist. […] Antagonist activity was then determined using a cAMP assay.

MC3R [2] = biological target: T2, MC3R (Homo sapiens, UniProt P41968); assay: as above; type: cell-based
Excerpt: as §1, §2

MC IR = MC IR (Homo sapiens, UniProt Q01726); assay: Displacement of NDP-MSH at melanocortin receptor (binding)
Protocol: (§3) Suitable binding assays are well known to those of skill in the art. In a preferred embodiment, the binding assay is a competitive assay that measures the ability of the test composition to displace/compete a reference ligand from a melanocortin receptor. In one preferred approach specific binding of ligands of this invention to cells expressing the MC-3 receptor is determined by competition experiments using labeled (e.g. ^125I-labeled) Nle^4-D-Phe^7-α-MSH (NDP-MSH), as described in Tatro et al. (1990) Cancer Res. 50: 1237-1242).
as §2

MC5R = MC5R (Homo sapiens, UniProt P33032); assay: as above
Protocol: as §3, §2

MC4R [3] = biological target: T1, MC4R; assay: as above
Protocol: as §3, §2

MC3R [4] = biological target: T2, MC3R; assay: as above
Protocol: as §3, §2

human MC4r = biological target: T3, human MC4r (Homo sapiens, UniProt P32245); assay: Inhibition of NDP-MSH stimulated cAMP generation in HEK-293 cells transfected with human MC4r; type: cell-based; conditions: 5.0×10^−6 M
T3 construct: expressed in transfected cells; host or cells: HEK-293
Protocol: Control experiments were performed with no MARP. […] Additional samples for HX experiments were prepared by lyophilization of protonated samples followed by reconstitution in 700 μl D2O.
This experiment measured inhibition of NDP-MSH stimulated cAMP generation in cells transfected with MC4r. A control experiment was conducted with no MARP present.

[5] = biological target: T4, human melanocortin receptor 4 (human, UniProt P32245 1-332); assay: displacement of NDP-MSH from the receptor
T4 construct: whole, on cells; also called MC4r; MC4R

MC4R [6] = biological target: T1, MC4R; conditions: versus agouti; cited from earlier work
MC3R [7] = biological target: T2, MC3R; conditions: versus agouti; cited from earlier work

T2 sequence (P41968 whole entry): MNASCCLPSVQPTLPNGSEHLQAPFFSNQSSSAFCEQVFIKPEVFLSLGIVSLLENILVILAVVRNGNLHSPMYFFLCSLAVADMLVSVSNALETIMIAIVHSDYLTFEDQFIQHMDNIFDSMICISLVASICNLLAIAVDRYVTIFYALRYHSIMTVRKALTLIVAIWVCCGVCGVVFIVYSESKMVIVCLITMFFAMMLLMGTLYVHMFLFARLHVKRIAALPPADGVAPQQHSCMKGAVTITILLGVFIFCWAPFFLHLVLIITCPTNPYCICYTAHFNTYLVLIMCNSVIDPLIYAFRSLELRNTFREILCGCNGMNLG
T1 sequence (P32245 whole entry): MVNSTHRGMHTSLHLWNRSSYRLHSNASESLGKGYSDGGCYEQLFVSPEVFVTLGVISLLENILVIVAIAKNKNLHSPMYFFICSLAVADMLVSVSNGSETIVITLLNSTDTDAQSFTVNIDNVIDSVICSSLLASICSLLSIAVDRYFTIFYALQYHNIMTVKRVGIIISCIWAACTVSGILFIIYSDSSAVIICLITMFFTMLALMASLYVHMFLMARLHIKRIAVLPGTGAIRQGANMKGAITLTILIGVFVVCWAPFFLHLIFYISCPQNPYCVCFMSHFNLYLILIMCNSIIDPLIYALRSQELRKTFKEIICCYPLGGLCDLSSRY
Chain of MC IR (Q01726 whole entry): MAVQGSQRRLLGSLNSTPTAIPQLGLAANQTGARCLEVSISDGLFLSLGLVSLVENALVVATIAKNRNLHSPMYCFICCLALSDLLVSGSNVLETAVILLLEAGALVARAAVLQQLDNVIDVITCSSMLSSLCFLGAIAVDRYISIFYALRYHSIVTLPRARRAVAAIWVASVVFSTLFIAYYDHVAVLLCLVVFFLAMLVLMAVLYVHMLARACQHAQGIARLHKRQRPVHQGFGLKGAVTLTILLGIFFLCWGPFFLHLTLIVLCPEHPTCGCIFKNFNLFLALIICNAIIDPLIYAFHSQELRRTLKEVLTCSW
Chain of MC5R (P33032 whole entry): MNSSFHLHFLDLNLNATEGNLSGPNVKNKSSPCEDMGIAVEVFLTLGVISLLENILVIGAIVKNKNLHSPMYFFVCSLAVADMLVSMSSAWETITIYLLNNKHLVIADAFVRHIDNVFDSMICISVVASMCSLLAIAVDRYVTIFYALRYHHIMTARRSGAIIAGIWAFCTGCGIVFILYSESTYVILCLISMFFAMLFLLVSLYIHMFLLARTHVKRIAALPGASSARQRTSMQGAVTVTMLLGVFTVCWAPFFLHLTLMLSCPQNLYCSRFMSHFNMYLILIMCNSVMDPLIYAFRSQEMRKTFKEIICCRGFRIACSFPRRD
T4 sequence (P32245 whole entry): as the sequence (P32245 whole entry) above
T3 sequence (P32245 whole entry): as above

Ac-CVRLHESCLGQQVPCCDPAATCYCRFFNAFCYCR-NH2 (disulfide (positions not given here); not fully specified (bridges); printed as Ac-CVRLHESCLGQQVPCCDPAATCYCRFFNAFCYCR-NH2) [mini-AGRP]
antagonist activity: suppression of α-MSH stimulated cAMP production (MC4R [1]): potent activity
antagonist activity: suppression of α-MSH stimulated cAMP production (MC3R [2]): potent activity
displacement of NDP-MSH, potency compared with AGRP(87-132) (MC IR): potency equivalent to that of AGRP(87-132)
displacement of NDP-MSH, potency compared with AGRP(87-132) (MC5R): potency equivalent to that of AGRP(87-132)
displacement of NDP-MSH, potency compared with AGRP(87-132) (MC4R [3]): potency equivalent to that of AGRP(87-132)
displacement of NDP-MSH, potency compared with AGRP(87-132) (MC3R [4]): potency equivalent to that of AGRP(87-132)

MARP with Arg-25 to Ala substitution: MARP single mutant with Arg-25 replaced by Ala in the active loop, chemically synthesized (Ac-CVRLHESCLGQQVPCCDPCATCYCAFFNAFCYCRKLGTAMNPCSRT; disulfide (positions not given here))
inhibition of NDP-MSH stimulated cAMP generation (human MC4r): complete loss of inhibitory activity

B1: mini-AGRP Ac-CVRLHESCLGQQVPCCDPAATCYCRFFNAFCYCR-NH2 (peptide)
peptide: Ac-CVRLHESCLGQQVPCCDPAATCYCRFFNAFCYCR-NH2
modifications: disulfide (positions not given here); not fully specified (bridges); printed as Ac-CVRLHESCLGQQVPCCDPAATCYCRFFNAFCYCR-NH2; also: four disulfide bonds, pairing not given here
notes: Fmoc solid-phase synthesis, folded under oxidizing conditions
binding result [5]: binds

B2: AGRP: human AGRP is a 132 residue polypeptide (SEQ ID NO:1), natural antagonist of melanocortin receptors 3 and 4 (protein, listed as Homo sapiens)
chain: MLTAAVLSCALLLALPATRGAQMGLAPMEGIRRPDQALLPELPGLGLRAPLKKTTAEQAEEDLLQEAQALAEVLDLQDREPRSSRRCVRLHESCLGQQVPCCDPCATCYCRFFNAFCYCRKLGTAMNPCSRT
binding affinity greater than agouti (MC4R [6]): approximately 100 fold
binding affinity greater than agouti (MC3R [7]): approximately 100 fold
